Test results as given in the supplement of paper PMC10567573.
± gives the standard deviation.

Assay: protein stability index of a GFP-peptide fusion (GPS, HEK-293T) (PSI 1-6); higher = more stable
[1] = treatment: DMSO, c terminus: a fixed tail appended
[2] = treatment: MLN4924 1 uM, 8 h, c terminus: a fixed tail appended
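Further: 24-mer peptide tiles fused after GFP, lentivirally expressed, FACS-sorted into six equal bins by GFP/DsRed ratio, decoded by Illumina sequencing, PSI is the read-weighted mean bin number.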

MELQKGKGAAAAAAASGAAGGGGG [INTS3]
protein stability index [1]: 5.19 ± 0.43
protein stability index [2]: 5.26 ± 0.36

MEMTRPTPPHLTSAMAENILAAAC [NOL4L]
protein stability index [1]: 3.38 ± 0.3
protein stability index [2]: 3.18 ± 0.34

MEQVHRGIKGLVRDSHGKGIPNAI [CPXM2]
protein stability index [1]: 3.68 ± 0.56
protein stability index [2]: 4.35 ± 0.17

METHKELKPLLSPSSETTVTVELP [LYSMD4]
protein stability index [1]: 4.77 ± 0.16
protein stability index [2]: 5.06 ± 0.083

MGRKRLITDSYPVVKRREGPAGHS [POLD4]
protein stability index [1]: 3.33 ± 0.32
protein stability index [2]: 3.2 ± 0.29

MKAAVDLKPTLTIIKTEKVDLELF [ETS1]
protein stability index [1]: 2.46 ± 0.35
protein stability index [2]: 2.55 ± 0.32

MKQRIAEENIMKSNIDKKFSAHYD [FAM50A]
protein stability index [1]: 3.85 ± 0.2
protein stability index [2]: 3.97 ± 0.14

MLCAASGNPDPEITWFKDFLPVDT [PTPRD]
protein stability index [1]: 2.95 ± 0.66
protein stability index [2]: 3.23 ± 0.42

MLLGVPRLRQLKVRNDSCVVHEDF [PKD2L1]
protein stability index [1]: 2.46 ± 0.33
protein stability index [2]: 2.52 ± 0.32

MLVDGIDPNFKMEHQNKRSPLHAA [EHMT1]
protein stability index [1]: 3.41 ± 0.39
protein stability index [2]: 3.67 ± 0.31

MMTLLMKKDTLTEEETQFYISETV [STK38L]
protein stability index [1]: 3.16 ± 0.23
protein stability index [2]: 3.3 ± 0.31

MPVQLTSRREIRKIMGVEEEDDDD [ANKRD40]
protein stability index [1]: 5.62 ± 0.19
protein stability index [2]: 5.57 ± 0.13

MPYISDKHPRQTLEVINLLRKHRE [KLHL20]
protein stability index [1]: 2.86 ± 0.51
protein stability index [2]: 2.98 ± 0.26

MSEIRFTNLTWDQVITLDQVLDEV [TENT5D]
protein stability index [1]: 2.33 ± 0.33
protein stability index [2]: 2.31 ± 0.27

MSEPAGDVRQNPCGSKACRRLFGP [CDKN1A]
protein stability index [1]: 3.58 ± 0.39
protein stability index [2]: 3.61 ± 0.14

MSSASGLRRGHPAGGEENMTETDA [CASP6]
protein stability index [1]: 5.3 ± 0.33
protein stability index [2]: 5.39 ± 0.16

MSSYTVAGRNVLRWDLSPEQIKTR [NLN]
protein stability index [1]: 2.99 ± 0.33
protein stability index [2]: 3.04 ± 0.18

MWYPEIKHFCPRTPVILVGCQLDL [RHOBTB1]
protein stability index [1]: 2.91 ± 0.57
protein stability index [2]: 2.6 ± 0.65

MYDEKAHEWKSLAPMDAPRYQHGI [KLHL13]
protein stability index [1]: 3.15 ± 0.21
protein stability index [2]: 3.4 ± 0.17

NCGKSFSRLTALTLHQRTHTEERP [ZNF449]
protein stability index [1]: 3.38 ± 0.27
protein stability index [2]: 3.36 ± 0.26

NDFSYLHTNCFELSIYVGCDKYPH [CPXM2]
protein stability index [1]: 2.5 ± 0.18
protein stability index [2]: 2.25 ± 0.37

NENDFYDGAWCAGRNDLQQWIEVD [CPXM2]
protein stability index [1]: 4.22 ± 0.46
protein stability index [2]: 4.05 ± 0.3

NENMAAKKKSVAMHTNYLSACSFT [GNB5]
protein stability index [1]: 3.09 ± 0.21
protein stability index [2]: 3.25 ± 0.3

NGASWHTVAGSLNDFSYLHTNCFE [CPXM2]
protein stability index [1]: 2.68 ± 0.47
protein stability index [2]: 2.83 ± 0.23

NGEYVPWLYCYDPVMDVWARKQDM [KLHL14]
protein stability index [1]: 2.49 ± 0.09
protein stability index [2]: 2.57 ± 0.21

NHFDMHRVGKWHQDFPVKKRKKLS [ZNF75A]
protein stability index [1]: 3.56 ± 0.24
protein stability index [2]: 3.92 ± 0.076

NHLPDPEIFRQRFRQFGYQDSPGP [ZNF24]
protein stability index [1]: 3.54 ± 0.29
protein stability index [2]: 3.48 ± 0.3

NISGHTNTNTLKVPECRLAEDLGN [SPOPL]
protein stability index [1]: 3.53 ± 0.26
protein stability index [2]: 3.7 ± 0.19

NIVNLLTTCSTPLLNSPPSFVCWS [AUP1]
protein stability index [1]: 3.2 ± 0.56
protein stability index [2]: 2.78 ± 0.47

NIWASQSVLSACDNLSDLVMVRWN [IQUB]
protein stability index [1]: 2.14 ± 0.11
protein stability index [2]: 2.27 ± 0.46

NKCSGMRFPLQEENSVTHHEVKCQ [KMT5A]
protein stability index [1]: 4.79 ± 0.42
protein stability index [2]: 4.61 ± 0.37

NKGTRFSEAWEYFHLAPARAGHHP [ZBED2]
protein stability index [1]: 2.64 ± 0.16
protein stability index [2]: 2.96 ± 0.22

NKNEVFYQCPDQMARNPAAIDMFI [FBXO3]
protein stability index [1]: 2.42 ± 0.17
protein stability index [2]: 2.65 ± 0.48

NLIYRSTRHLKRLALMIQSSGNTV [TMEM192]
protein stability index [1]: 2.93 ± 0.43
protein stability index [2]: 2.67 ± 0.42

NLLFKPPVESHIQKNKKILKSAKD [KMT2E]
protein stability index [1]: 3.61 ± 0.099
protein stability index [2]: 3.6 ± 0.38

NPTRQDESIQRIAVHLCNALVCQV [ZER1]
protein stability index [1]: 2.48 ± 0.74
protein stability index [2]: 2.27 ± 0.16

NQKCQLRLLKTLETSRSHDLEAVV [ATP23]
protein stability index [1]: 3.14 ± 0.12
protein stability index [2]: 3.3 ± 0.2

NQLTHTDLKPENILFVNSEFETLY [CLK3]
protein stability index [1]: 3.29 ± 0.35
protein stability index [2]: 3.27 ± 0.18

NRFVQLSGRPHLPGKKKIRWDPVR [KLHDC10]
protein stability index [1]: 2.5 ± 0.6
protein stability index [2]: 2.49 ± 0.52

NRVSWWGSTLAMLQRLKEQQFVIA [ZBED1]
protein stability index [1]: 2.41 ± 0.38
protein stability index [2]: 2.48 ± 1

NSGLKPKDNEFTSKPWHWPINYQG [POMT2]
protein stability index [1]: 2.99 ± 0.18
protein stability index [2]: 3.24 ± 0.27

NSHQDFWTVWSGNRASLYSFPEPE [PRAME]
protein stability index [1]: 2.49 ± 0.19
protein stability index [2]: 2.67 ± 0.38

NSLITAPGEFSDASMSPDATKPSH [SMAD6]
protein stability index [1]: 5.07 ± 0.21
protein stability index [2]: 5.23 ± 0.18

NSTPLRAACFDGRLDIVKYLVENN [FEM1B]
protein stability index [1]: 2.84 ± 0.19
protein stability index [2]: 3.01 ± 0.21

NTEDWRPRPGTGQSRSFRILAHLT [PDLIM7]
protein stability index [1]: 2.81 ± 0.33
protein stability index [2]: 2.9 ± 0.22

NTKEKIAFFASHQCSNRIGSMKIK [FBXO34]
protein stability index [1]: 2.79 ± 0.19
protein stability index [2]: 2.72 ± 0.46

NVADTLVLADLHSAEQLKAQAIDF [SPOPL]
protein stability index [1]: 3.46 ± 0.16
protein stability index [2]: 3.77 ± 0.57

NVKMIVLICVIVFIIILFIVLFAT [VAMP8]
protein stability index [1]: 2.27 ± 0.3
protein stability index [2]: 2.37 ± 0.27

NVSLGPGVVVEDGVCIRRCTVLRD [GMPPB]
protein stability index [1]: 3.54 ± 0.27
protein stability index [2]: 3.44 ± 0.29

NVTRHQAECALNERGVEGDFLIRD [NCK2]
protein stability index [1]: 4.35 ± 0.27
protein stability index [2]: 4.5 ± 0.31

NWRYATGGWETVFRPVSETCTDRS [FUT8]
protein stability index [1]: 2.21 ± 0.42
protein stability index [2]: 3 ± 0.67

PAFPFIYTPTAEDSAQMQNGGPST [ANKRD40]
protein stability index [1]: 4.55 ± 0.12
protein stability index [2]: 4.5 ± 0.23

PALLFPATRGVPAKRLLDADDAAA [TRIB1]
protein stability index [1]: 4.74 ± 0.23
protein stability index [2]: 4.67 ± 0.27

PAPTTTTATREEASTSLPTKPTQG [CLPTM1]
protein stability index [1]: 5.54 ± 0.19
protein stability index [2]: 5.57 ± 0.14

PASGEVEASQLRRLNIKKDDEFFH [TMEM40]
protein stability index [1]: 4.79 ± 0.1
protein stability index [2]: 4.78 ± 0.25

PEEPSAEDSINNSLVQLQASHQQQ [MYBL2]
protein stability index [1]: 5.62 ± 0.18
protein stability index [2]: 5.55 ± 0.16

PEVECLKANTNEVLWAVVAAFTK [GOLPH3]
protein stability index (treatment: DMSO, c terminus: native): 2.17 ± 0.17
protein stability index (treatment: MLN4924 1 uM, 8 h, c terminus: native): 2.25 ± 0.31

PFDGLLEERALLLGRMGKHEQALF [VPS39]
protein stability index [1]: 2.59 ± 0.28
protein stability index [2]: 2.67 ± 0.37

PGAGDPAPGIGPPEPWPGGCTGDE [MYCL]
protein stability index [1]: 5.38 ± 0.057
protein stability index [2]: 5.16 ± 0.43

PGVHRRYSALREESAKDWETSPLP [PPFIA4]
protein stability index [1]: 4.04 ± 0.31
protein stability index [2]: 4.43 ± 0.27

PIVNISEVLGPLCLMLLMGTVHCQ [PHTF1]
protein stability index [1]: 3.34 ± 0.24
protein stability index [2]: 3.17 ± 0.22

PKELSSFSFSMKGHEKTAKSKTRS [DLC1]
protein stability index [1]: 4.73 ± 0.31
protein stability index [2]: 4.78 ± 0.21

PLEAMYMQCPVIAVNSGGPLESID [ALG2]
protein stability index [1]: 3.61 ± 0.33
protein stability index [2]: 3.86 ± 0.22

PLGVLQAIAMYFLPPSPRFLVMKG [SLC2A12]
protein stability index [1]: 2.64 ± 0.98
protein stability index [2]: 2.88 ± 1.3

PLTSHILRAFVNSQIQGHKEMSKV [SNX8]
protein stability index [1]: 2.3 ± 0.36
protein stability index [2]: 2.21 ± 0.3

PMPWLVLSEIFPGGIRGRAMALTS [SLC2A12]
protein stability index [1]: 2.5 ± 0.16
protein stability index [2]: 2.33 ± 0.38

PNGSAAEPPTEAASREENQAGPEA [PALM]
protein stability index [1]: 5.56 ± 0.35
protein stability index [2]: 5.4 ± 0.25

PNIRNMAPNSLSAPTMLHNSSGDF [TRAF3IP2]
protein stability index [1]: 4.16 ± 0.34
protein stability index [2]: 4.43 ± 0.19

PNNSCYSAGIAKLEEGDELQLAIP [TNFSF13B]
protein stability index [1]: 4.55 ± 0.12
protein stability index [2]: 4.59 ± 0.29

PPLPTYHVLLEGEGLGQSLGNFKD [TRIM29]
protein stability index [1]: 3.8 ± 0.085
protein stability index [2]: 3.7 ± 0.14

PPLTRQIAVKTLGIGKNVICDRTA [GFOD1]
protein stability index [1]: 3.71 ± 0.22
protein stability index [2]: 3.92 ± 0.082

PPNQQMSPSPMSHGHYSMHCLHSA [DLX1]
protein stability index [1]: 3.1 ± 0.31
protein stability index [2]: 3.13 ± 0.15

PPSMVAAGSVVAAVQGLNLRSPNN [CCND1]
protein stability index [1]: 4.31 ± 0.17
protein stability index [2]: 4.3 ± 0.26

PPSRAPTAAPPPPPPSRPSVAVPP [WASL]
protein stability index [1]: 4.77 ± 0.21
protein stability index [2]: 4.86 ± 0.21

PPTSPEPPRSSPRQTPAPGPAREK [CEBPD]
protein stability index [2]: 5.62 ± 0.089

PQIPVDRGSETTYESSADIAGDEG [TAF7L]
protein stability index [1]: 5.46 ± 0.22
protein stability index [2]: 5.48 ± 0.32

PQKSYFIRLYGLQAGRLLWEQELY [WAS]
protein stability index [1]: 2.28 ± 0.32
protein stability index [2]: 2.15 ± 0.19

PRLIAKVEGKGNGIKTVIVNMVDV [EIF5]
protein stability index [1]: 2.34 ± 0.41
protein stability index [2]: 2.37 ± 0.34

PSHYDVQDRFRIELSEEGAEGRVV [MOSPD3]
protein stability index [1]: 4.63 ± 0.11
protein stability index [2]: 4.79 ± 0.33

PSSLGPLLPLQREPLYNWQATKAS [BTBD1]
protein stability index [1]: 3.36 ± 0.21
protein stability index [2]: 3.5 ± 0.14

PSVMDPGAFETVLASAYTGRLSMA [ZBTB22]
protein stability index [1]: 2.3 ± 0.38
protein stability index [2]: 2.3 ± 0.17

PTPSTDAEYPANGSGADRIYDLNI [NCK2]
protein stability index [1]: 4.69 ± 0.21
protein stability index [2]: 4.71 ± 0.19

PTTEPETEPEDDRGPVVPKHSTFG [GNAS]
protein stability index [1]: 5.4 ± 0.18
protein stability index [2]: 5.27 ± 0.42

PTVTIEGFLQALSLAVDKQFEERK [TRIP13]
protein stability index [1]: 2.29 ± 0.61
protein stability index [2]: 2.13 ± 0.44

PVGSCCSSPAGLSREYKLVMLGAG [RIT1]
protein stability index [1]: 2.54 ± 0.44
protein stability index [2]: 2.24 ± 0.35

PVQPGMLIDVCKYLGSLQYRVWKK [TRIM35]
protein stability index [1]: 2 ± 0.2
protein stability index [2]: 2.17 ± 0.29

PVRRIDGLTDVSQIITVTVQTGLD [IQUB]
protein stability index [1]: 2.47 ± 0.45
protein stability index [2]: 2.45 ± 0.52

PVVSAVWGHCEIRMRYLNGLDPEP [SPSB1]
protein stability index [1]: 2.14 ± 0.35
protein stability index [2]: 1.98 ± 0.33

QAHELAYDPNYMSPFAQFACDNGL [PPTC7]
protein stability index [1]: 3.32 ± 0.12
protein stability index [2]: 3.13 ± 0.41
